Blank lines part the entries; values can stand above or below the binder they belong to.
Key:
[1] = biological target: T1, human CD40, soluble or recombinant (ELISA, Biacore) (human, UniProt P25942 21-193, limits assumed); test: Biacore (method named in paragraph 140)
T1 construct: also called soluble CD40; recombinant CD40

[2] = biological target: T2, human CD40, cell-surface (on human B cells, monocytes and other CD40-expressing cells) (human, UniProt P25942 20-277); test: cell-based or functional assay
T2 sequence (P25942 20-277): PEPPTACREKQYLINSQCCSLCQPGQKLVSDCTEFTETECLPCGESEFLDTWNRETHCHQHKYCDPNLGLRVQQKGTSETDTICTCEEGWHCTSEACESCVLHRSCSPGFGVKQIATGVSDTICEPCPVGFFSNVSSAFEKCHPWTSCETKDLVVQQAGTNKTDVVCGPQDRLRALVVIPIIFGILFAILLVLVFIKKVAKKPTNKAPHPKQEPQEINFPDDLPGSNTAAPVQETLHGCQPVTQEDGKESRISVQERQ

[3] = biological target: T2, human CD40, cell-surface (on human B …); test: cell-based or functional assay; remark: listed apart in the source

T1 sequence (P25942 21-193 limits assumed): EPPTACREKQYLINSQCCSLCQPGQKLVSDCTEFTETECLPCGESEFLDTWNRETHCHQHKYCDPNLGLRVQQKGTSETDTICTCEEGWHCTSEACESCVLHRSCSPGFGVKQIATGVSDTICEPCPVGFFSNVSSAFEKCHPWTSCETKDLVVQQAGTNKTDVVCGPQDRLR

- Kd [1]: 12 nM
B1: CHIR-5.9 fully human anti-CD40 monoclonal antibody (antibody, V domains shown)
VH: EVQLVQSGAEVKKPGESLKISCKGSGYSFTSYWIGWVRQMPGKGLEWMGIIYPGDSDTRYSPSFQGQVTISADKSISTAYLQWSSLKASDTAMYYCARGTAAGRDYYYYYGMDVWGQGTTVTVSS
VL: AIVMTQPPLSSPVTLGQPASISCRSSQSLVHSDGNTYLNWLQQRPGQPPRLLIYKFFRRLSGVPDRFSGSGAGTDFTLKISRVEAEDVGVYYCMQVTQFPHTFGQGTRLEIKR
notes: also called mAb CHIR-5.9; 131.2F8.5.9

- MCP-1 secretion, normal B cells, Donor 1 (folds of induction over background) [2]: 5.5 fold
- MCP-1 secretion, normal B cells, Donor 3 (folds of induction over background) [2]: 1.7 fold
- MIP-1beta secretion, normal B cells, Donor 1 (folds of induction over background) [2]: 2.2 fold
- MIP-1beta secretion, normal B cells, Donor 2 (folds of induction over background) [2]: 2.6 fold
- MIP-1beta secretion, normal B cells, Donor 3 (folds of induction over background) [2]: 17.8 fold
- hIL-6 secretion, normal B cells, Donor 1 (folds of induction over background) [2]: 5.7 fold
- hIL-6 secretion, normal B cells, Donor 2 (folds of induction over background) [2]: 3.8 fold
- hIL-6 secretion, normal B cells, Donor 3 (folds of induction over background) [2]: 20.5 fold
- hIL-8 secretion, normal B cells, Donor 1 (folds of induction over background) [2]: 7.7 fold
- hIL-8 secretion, normal B cells, Donor 2 (folds of induction over background) [2]: 14.7 fold
- hIL-8 secretion, normal B cells, Donor 3 (folds of induction over background) [2]: 49.3 fold
- hIL-10 secretion, normal B cells, Donor 1 (folds of induction over background) [2]: 3.6 fold
- hIL-10 secretion, normal B cells, Donor 3 (folds of induction over background) [2]: 3.6 fold
- hTNF-alpha secretion, normal B cells, Donor 1 (folds of induction over background) [2]: 3.7 fold
- hTNF-alpha secretion, normal B cells, Donor 2 (folds of induction over background) [2]: 4.8 fold
- hTNF-alpha secretion, normal B cells, Donor 3 (folds of induction over background) [2]: 22.8 fold
- MCP-1 secretion, monocytes, Donor 1 (folds of induction over background) [3]: 290 fold
- MIP-1beta secretion, monocytes, Donor 1 (folds of induction over background) [3]: 162 fold
- hIL6 secretion, monocytes, Donor 1 (folds of induction over background) [3]: 77.9 fold
- hIL8 secretion, monocytes, Donor 1 (folds of induction over background) [3]: 124 fold
- hIL-10 secretion, monocytes, Donor 1 (folds of induction over background) [3]: 4.2 fold
- hTNF-alpha secretion, monocytes, Donor 1 (folds of induction over background) [3]: 13.8 fold
B2: CD40L on formaldehyde-fixed transfected CHO cells (ligand)
chain: MIETYNQTSPRSAATGLPISMKIFMYLLTVFLITQMIGSALFAVYLHRRLDKIEDERNLHEDFVFMKTIQRCNTGERSLSLLNCEEIKSQFEGFVKDIMLNKEETKKENSFEMQKGDQNPQIAAHVISEASSKTTSVLQWAEKGYYTMSNNLVTLENGKQLTVKRQGLYYIYAQVTFCSNREASSQAPFIASLCLKSPGRFERILLRAANTHSSAKPCGQQSIHLGGVFELQPGASVFVNVTDPSQVSHGTGFTSFGLLKL

- Kd [1]: 0.5 nM
B3: CHIR-12.12 fully human anti-CD40 monoclonal antibody (antibody, V domains shown)
VH: QVQLVESGGGVVQPGRSLRLSCAASGFTFSSYGMHWVRQAPGKGLEWVAVISYEESNRYHADSVKGRFTISRDNSKITLYLQMNSLRTEDTAVYYCARDGGIAAPGPDYWGQGTLVTVSS
VL: DIVMTQSPLSLTVTPGEPASISCRSSQSLLYSNGYNYLDWYLQKPGQSPQVLISLGSNRASGVPDRFSGSGSGTDFTLKISRVEAEDVGVYYCMQARQTPFTFGPGTKVDIRR
notes: also called 153.8E2.D10.D6.12.12

Reference: patent publication US20080274118A1 (Novartis, published 2008)
